Data as given in the supplement of paper PMC7125110.
± gives the standard error. For part of these data: Fewer inactive variants are shown than the library holds.

B1: glmS ribozyme (parent)
chain: AUAAAAGCGCCAGAACUACAGAAAUGUAGUUGACGAGGAGGAGGUUUAUCGAAUUUUCGGCGGAUGCCUCCAAA

Assays:
Settings in all cases: with glucosamine-6-phosphate
[1] = variants of: B1; test: kcat; higher = faster cleavage; RNA array
In short: (§1)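 Barcoded ribozyme variants were transcribed in situ on sequenced MiSeq chips by E. coli RNA polymerase. At 37 °C, a hybridised Cy3 probe tracked them while glucosamine-6-phosphate (40 μM to 10 mM) in HEPES/KCl/Mg(OAc)2 buffer flowed in and tiles were imaged over ~14 h. Per-tile medians of signals normalised to baseline and to non-cleaving reference variants were fit to one- or two-exponential decays, giving kobs. kcat and KM came from weighted Michaelis–Menten fits across concentrations.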

[2] = variants of: B1; test: self-cleavage kobs at 40 uM GlcN6P; higher = faster cleavage; RNA array
In short: as §1

[3] = variants of: B1; test: self-cleavage kobs at 160 uM GlcN6P; higher = faster cleavage; RNA array
In short: as §1

[4] = variants of: B1; test: self-cleavage kobs at 640 uM GlcN6P; higher = faster cleavage; RNA array
In short: as §1

[5] = variants of: B1; test: self-cleavage kobs at 2500 uM GlcN6P; higher = faster cleavage; RNA array
In short: as §1

[6] = variants of: B1; test: self-cleavage kobs at 10000 uM GlcN6P; higher = faster cleavage; RNA array
In short: as §1

[7] = variants of: B1; test: KM; higher = weaker cofactor use; RNA array
In short: as §1

Row | Variant | kcat [1] | self-cleavage kobs at 40 uM GlcN6P [2] | self-cleavage kobs at 160 uM GlcN6P [3] | self-cleavage kobs at 640 uM GlcN6P [4] | self-cleavage kobs at 2500 uM GlcN6P [5] | self-cleavage kobs at 10000 uM GlcN6P [6] | KM [7]
1 | C11U G59A | 0.0105 ± 0.0043 s⁻¹ | 0.000335 ± 3.7e-05 s⁻¹ | 0.0014 ± 0.00027 s⁻¹ | 0.00203 ± 0.0004 s⁻¹ | 0.00582 ± 0.0018 s⁻¹ | 0.0116 ± 0.0016 s⁻¹ | –
2 | A12C A48G | 5.38e-05 ± 6.8e-06 s⁻¹ | – | – | – | 4.26e-05 ± 1.2e-05 s⁻¹ | 4.66e-05 ± 7.1e-06 s⁻¹ | –
3 | A12C A48U | 0.000191 ± 4.1e-06 s⁻¹ | – | – | 3.34e-05 ± 9.3e-06 s⁻¹ | 9.1e-05 ± 1.6e-05 s⁻¹ | 0.000147 ± 1.6e-05 s⁻¹ | 2890 ± 150 µM
4 | C11U C70G C71U | 5.18e-05 ± 1e-05 s⁻¹ | – | – | 7.99e-05 ± 2.7e-05 s⁻¹ | – | 5.18e-05 ± 1.3e-05 s⁻¹ | –
5 | A12G C70U | 0.00188 ± 0.00036 s⁻¹ | 1.71e-05 ± 6.8e-06 s⁻¹ | 7.66e-05 ± 6.8e-06 s⁻¹ | 0.00025 ± 2.2e-05 s⁻¹ | 0.00055 ± 4.3e-05 s⁻¹ | 0.00139 ± 7.5e-05 s⁻¹ | 4460 ± 1400 µM
6 | A12U C67G C68G | 4.76e-05 ± 1.4e-05 s⁻¹ | – | 7.57e-05 ± 3.2e-05 s⁻¹ | 6.79e-05 ± 1.9e-05 s⁻¹ | 4.47e-05 ± 1.5e-05 s⁻¹ | – | –
7 | C11U A14C C70U | 0.000322 ± 0.00016 s⁻¹ | – | – | 0.000221 ± 4.6e-05 s⁻¹ | 0.000599 ± 0.00016 s⁻¹ | 0.000224 ± 6.8e-05 s⁻¹ | –
8 | G13A C70G | 3.04e-05 ± 1.3e-05 s⁻¹ | – | – | 5.03e-05 ± 1.9e-05 s⁻¹ | 5.41e-05 ± 1.5e-05 s⁻¹ | – | –
9 | G13A C70A | 2.43e-05 ± 6.3e-06 s⁻¹ | – | – | – | – | – | –
10 | A12U U56C | 0.0355 ± 0.014 s⁻¹ | 0.000487 ± 0.00011 s⁻¹ | 0.00159 ± 0.00028 s⁻¹ | 0.00808 ± 0.0013 s⁻¹ | – | 0.0251 ± 0.0075 s⁻¹ | 2940 ± 1400 µM
11 | A12U U56G | 0.0516 ± 0.013 s⁻¹ | 0.00172 ± 0.0002 s⁻¹ | 0.00468 ± 0.00073 s⁻¹ | 0.0197 ± 0.0057 s⁻¹ | – | 0.0461 ± 0.011 s⁻¹ | 1320 ± 390 µM
12 | A12U G59U | 1.03e-05 ± 1e-06 s⁻¹ | – | – | – | – | – | –
13 | A12G G37A | 0.000113 ± 2.5e-05 s⁻¹ | – | – | – | 3.05e-05 ± 8.5e-06 s⁻¹ | 6.97e-05 ± 1.1e-05 s⁻¹ | 6320 ± 2800 µM
14 | A12G G13A | 6.3e-05 ± 2.4e-06 s⁻¹ | – | – | – | 2.7e-05 ± 9.7e-06 s⁻¹ | 4.66e-05 ± 7.4e-06 s⁻¹ | 3470 ± 390 µM
15 | G13A U57A | 5.51e-05 ± 4.2e-06 s⁻¹ | – | – | – | 4.76e-05 ± 1.5e-05 s⁻¹ | – | 370 ± 130 µM
16 | A12C G41C | 4.9e-05 ± 9.3e-06 s⁻¹ | – | – | – | 7.35e-05 ± 3.2e-05 s⁻¹ | 4.45e-05 ± 1.1e-05 s⁻¹ | –
17 | A12U A48U C70A | 5.26e-05 ± 1.7e-05 s⁻¹ | – | – | – | 6.36e-05 ± 2e-05 s⁻¹ | 4.16e-05 ± 1.5e-05 s⁻¹ | –

Row | Variant | kcat [1] | self-cleavage kobs at 40 uM GlcN6P [2] | self-cleavage kobs at 160 uM GlcN6P [3] | self-cleavage kobs at 640 uM GlcN6P [4] | self-cleavage kobs at 2500 uM GlcN6P [5] | self-cleavage kobs at 10000 uM GlcN6P [6] | KM [7]
18 | A12G G41C | 0.000171 ± 2.4e-05 s⁻¹ | < 1e-05 s⁻¹ | – | – | 3.14e-05 ± 1.1e-05 s⁻¹ | 8.02e-05 ± 1.1e-05 s⁻¹ | –
19 | A12G G41A | 0.00048 ± 0.00011 s⁻¹ | – | – | 3.72e-05 ± 1.2e-05 s⁻¹ | 8.85e-05 ± 1.7e-05 s⁻¹ | 0.000246 ± 3.7e-05 s⁻¹ | 9920 ± 3500 µM
20 | A12U U65A | 0.0089 ± 0.0024 s⁻¹ | 0.000192 ± 2.4e-05 s⁻¹ | 0.000483 ± 5.8e-05 s⁻¹ | 0.00176 ± 0.00027 s⁻¹ | 0.00391 ± 0.00071 s⁻¹ | 0.00799 ± 0.0012 s⁻¹ | 2460 ± 840 µM
21 | A12U U65C | 0.0021 ± 0.00079 s⁻¹ | 4.28e-05 ± 1.2e-05 s⁻¹ | 0.000217 ± 5.2e-05 s⁻¹ | 0.000421 ± 9.9e-05 s⁻¹ | 0.00209 ± 0.00035 s⁻¹ | 0.00151 ± 0.00034 s⁻¹ | –
22 | C11U A12U U56C | 0.00124 ± 0.00036 s⁻¹ | 5.74e-05 ± 1.7e-05 s⁻¹ | – | 0.000258 ± 5e-05 s⁻¹ | 0.000639 ± 0.00015 s⁻¹ | 0.00106 ± 0.00015 s⁻¹ | –
23 | C11U G40U | 0.000224 ± 2.2e-05 s⁻¹ | – | – | 2.87e-05 ± 7.5e-06 s⁻¹ | 0.000111 ± 3.6e-05 s⁻¹ | 0.000159 ± 1.6e-05 s⁻¹ | 3980 ± 910 µM
24 | C11U U54G | 0.00114 ± 0.00053 s⁻¹ | 5.3e-05 ± 1.1e-05 s⁻¹ | 0.000153 ± 2.1e-05 s⁻¹ | 0.000277 ± 3.9e-05 s⁻¹ | 0.000642 ± 9.5e-05 s⁻¹ | 0.00164 ± 0.00025 s⁻¹ | –
25 | C11U U54C | 0.00157 ± 0.00021 s⁻¹ | 6.42e-05 ± 1.2e-05 s⁻¹ | 0.000204 ± 9.2e-05 s⁻¹ | 0.000616 ± 0.00017 s⁻¹ | 0.00092 ± 0.00024 s⁻¹ | 0.00167 ± 0.00033 s⁻¹ | 990 ± 210 µM
26 | A12C U31C | 0.00286 ± 0.00052 s⁻¹ | 3.7e-05 ± 1.5e-05 s⁻¹ | 8.05e-05 ± 1.6e-05 s⁻¹ | 0.000348 ± 6.1e-05 s⁻¹ | 0.000876 ± 0.00014 s⁻¹ | 0.00195 ± 0.0003 s⁻¹ | 5110 ± 1300 µM
27 | A12U A39C | 0.00341 ± 0.00095 s⁻¹ | 9.51e-05 ± 1.7e-05 s⁻¹ | 0.000149 ± 2.7e-05 s⁻¹ | 0.000656 ± 8.7e-05 s⁻¹ | 0.00163 ± 0.00023 s⁻¹ | 0.00266 ± 0.00035 s⁻¹ | 2770 ± 1100 µM
28 | C11U G29C C50G C68G | 7.23e-05 ± 1.9e-05 s⁻¹ | – | 0.000134 ± 2.7e-05 s⁻¹ | 7.71e-05 ± 2.1e-05 s⁻¹ | 9.67e-05 ± 1.5e-05 s⁻¹ | 5.44e-05 ± 1e-05 s⁻¹ | –
29 | G13A C67A C68U C70G | < 1e-05 s⁻¹ | < 1e-05 s⁻¹ | – | – | – | – | –
30 | A12C C50A C68G | 2.56e-05 ± 8.7e-06 s⁻¹ | – | – | – | – | – | –
31 | A12C C67U | 0.00763 ± 0.0029 s⁻¹ | 0.000156 ± 1.3e-05 s⁻¹ | 0.000508 ± 5.5e-05 s⁻¹ | 0.00137 ± 0.0002 s⁻¹ | 0.00322 ± 0.00048 s⁻¹ | 0.00923 ± 0.0012 s⁻¹ | 2210 ± 1000 µM
32 | C11U A12U G32A | 0.000169 ± 4.7e-05 s⁻¹ | – | – | – | 0.000124 ± 3.5e-05 s⁻¹ | 0.00013 ± 2.5e-05 s⁻¹ | –
33 | C11U C70U | 0.000987 ± 0.00026 s⁻¹ | 5.88e-05 ± 6.9e-06 s⁻¹ | 0.000165 ± 2.1e-05 s⁻¹ | 0.000397 ± 3.7e-05 s⁻¹ | 0.000735 ± 9.1e-05 s⁻¹ | 0.00165 ± 0.00027 s⁻¹ | 772 ± 320 µM
